Each block holds one binder with its values, some of them ahead of it.
Legend:
[1] = target: T1, 人N端脑钠肽前体 (N-terminal pro-brain natriuretic peptide, NT-proBNP) (human, UniProt P16860 27-102); test: indirect ELISA, NT-proBNP coated at 400 ng/ml, serially diluted purified ascites antibody
T1 construct: domain: N端脑钠肽前体 (NT-proBNP), 76个氨基酸残基; Bought recombinant protein; also called hNT-proBNP; 人N末端B型脑钠肽前体
T1 sequence (looked up): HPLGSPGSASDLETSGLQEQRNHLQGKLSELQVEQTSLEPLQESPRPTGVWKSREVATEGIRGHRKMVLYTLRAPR

[2] = target: T1, 人N端脑钠肽前体 (N-terminal pro-brain …); test: non-competitive enzyme immunoassay (ELISA), NT-proBNP coated at 400, 100, 25 ng/mL, Ka=(n-1)/2(n[Ab']t-[Ab]t)

- 效价 (antibody dilution at OD450 about 1.0) [1]: > 1e+06 dilution fold (1:x)
B1: 单克隆抗体Ab3 (抗人N端脑钠肽前体单克隆抗体) (antibody, V domains shown)
VH: QVQLQQPGAELVKPGASVKMSCQASGFTFTNYIIHWVKQTPGQGLEWIGAIYPGNGDTSYNQKFRGKATLTADKSSNTAYMQLSSLTSEDSAVYYCAGEDNYGNSYWYFDVWGAGTTVTVSS
VL: DIVMTQTPLSLPVSLGDQASISCRSSQSIVHSTGNTYLEWYLQKPGQSPKLLIYKVSNRLSGVPDRFSGSGSGTDFTLKISRVEAEDLGVYYCFQGSQVSLTFGAGTKLELKR

- 效价 (antibody dilution at OD450 about 1.0) [1]: > 1e+06 dilution fold (1:x)
- Ka [2]: 1e+10 M⁻¹
B2: 单克隆抗体Ab1 (抗人N端脑钠肽前体单克隆抗体, 杂交瘤细胞株3A2分泌) (antibody)
chain 1: VKLQESGPELVKPGASQKISCKTSGYTFTVYTLHWVKQSHGKSLEWIGAINPKTGSIRNNQKFRDKAILTIDRSSNTAYMDLRSLTSDDSAVYFCARNGGHDVYFFDYWGQGTTVTVSS
chain 2: DIVLTQSPASLAVSLGQRATISYRASKSVSTSGYSYMHWNQQKPGQPPRLLIYLVSNLESGVPARFSGSGSGTDFTLNIHPVEEEDAATYYCQHIR
